Consider three molecules from patent publication US20220016245A1, “CONJUGATE OF BIOTIN-MODIFIED DIMER AND PHTHALOCYANINE DYE” (The University of Tokyo, priority 2018, published 2022).

Experiment [1] addresses T1, Recombinant Human CEACAM-5/CD66e Protein, CF (R & D SYSTEMS) (human, UniProt P06731 35-685).
T1 construct: Bought protein, immobilized on the sensor chip by amine coupling
T1 sequence (looked up): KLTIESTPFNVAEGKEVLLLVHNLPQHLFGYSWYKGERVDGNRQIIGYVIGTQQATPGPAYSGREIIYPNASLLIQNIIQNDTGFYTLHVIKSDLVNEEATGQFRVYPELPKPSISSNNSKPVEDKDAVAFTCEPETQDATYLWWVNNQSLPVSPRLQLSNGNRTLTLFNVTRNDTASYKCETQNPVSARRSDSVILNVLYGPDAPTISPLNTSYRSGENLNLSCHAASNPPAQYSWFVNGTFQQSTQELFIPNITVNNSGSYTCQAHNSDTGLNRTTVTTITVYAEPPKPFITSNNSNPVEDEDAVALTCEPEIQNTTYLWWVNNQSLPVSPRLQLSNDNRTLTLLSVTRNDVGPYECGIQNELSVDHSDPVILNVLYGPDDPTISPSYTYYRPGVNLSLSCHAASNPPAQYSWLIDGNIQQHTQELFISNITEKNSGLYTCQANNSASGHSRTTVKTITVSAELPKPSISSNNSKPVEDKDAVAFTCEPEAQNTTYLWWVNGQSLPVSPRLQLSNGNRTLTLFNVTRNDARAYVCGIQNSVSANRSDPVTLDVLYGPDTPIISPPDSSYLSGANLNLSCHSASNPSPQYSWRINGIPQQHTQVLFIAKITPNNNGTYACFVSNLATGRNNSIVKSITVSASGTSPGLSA
Kind of experiment: SPR, Biacore T200; CEACAM5 immobilized by amine coupling (279 RU), CEA-V2122 as analyte, single-cycle kinetics, bivalent analysis fit (KD = kd1/ka1).

Experiment [2] addresses T2, Recombinant Human CEACAM-5/CD66e Protein (Homo sapiens, UniProt P06731).
T2 construct: purchased R & D SYSTEMS
T2 sequence (P06731 35-676): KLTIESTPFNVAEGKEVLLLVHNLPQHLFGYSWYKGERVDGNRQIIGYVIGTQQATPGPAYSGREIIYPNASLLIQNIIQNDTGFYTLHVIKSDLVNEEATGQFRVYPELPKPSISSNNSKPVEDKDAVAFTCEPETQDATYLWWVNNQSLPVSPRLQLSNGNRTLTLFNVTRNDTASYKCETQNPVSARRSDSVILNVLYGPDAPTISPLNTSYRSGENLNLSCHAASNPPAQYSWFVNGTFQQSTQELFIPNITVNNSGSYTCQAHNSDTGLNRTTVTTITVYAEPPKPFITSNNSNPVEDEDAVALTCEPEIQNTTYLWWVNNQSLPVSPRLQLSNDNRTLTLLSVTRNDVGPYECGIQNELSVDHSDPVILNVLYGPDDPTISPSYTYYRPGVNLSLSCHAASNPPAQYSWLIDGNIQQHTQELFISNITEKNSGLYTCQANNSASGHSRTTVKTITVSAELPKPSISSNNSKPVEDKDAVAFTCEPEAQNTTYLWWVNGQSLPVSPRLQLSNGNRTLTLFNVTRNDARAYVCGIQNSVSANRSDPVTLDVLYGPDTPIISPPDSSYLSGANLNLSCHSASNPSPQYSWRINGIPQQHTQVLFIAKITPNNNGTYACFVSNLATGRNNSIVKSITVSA
Kind of experiment: SPR (Biacore T200) affinity of CEA-V2122 for antigen CEACAM5. It counts as binding.

A further experiment has as its target T3, CEACAM5 (Homo sapiens, UniProt P06731).
T3 construct: endogenous in cells; host or cells: MKN-45 (CEACAM5-positive); DLD1 (CEACAM5-negative control)
T3 sequence (P06731 35-676): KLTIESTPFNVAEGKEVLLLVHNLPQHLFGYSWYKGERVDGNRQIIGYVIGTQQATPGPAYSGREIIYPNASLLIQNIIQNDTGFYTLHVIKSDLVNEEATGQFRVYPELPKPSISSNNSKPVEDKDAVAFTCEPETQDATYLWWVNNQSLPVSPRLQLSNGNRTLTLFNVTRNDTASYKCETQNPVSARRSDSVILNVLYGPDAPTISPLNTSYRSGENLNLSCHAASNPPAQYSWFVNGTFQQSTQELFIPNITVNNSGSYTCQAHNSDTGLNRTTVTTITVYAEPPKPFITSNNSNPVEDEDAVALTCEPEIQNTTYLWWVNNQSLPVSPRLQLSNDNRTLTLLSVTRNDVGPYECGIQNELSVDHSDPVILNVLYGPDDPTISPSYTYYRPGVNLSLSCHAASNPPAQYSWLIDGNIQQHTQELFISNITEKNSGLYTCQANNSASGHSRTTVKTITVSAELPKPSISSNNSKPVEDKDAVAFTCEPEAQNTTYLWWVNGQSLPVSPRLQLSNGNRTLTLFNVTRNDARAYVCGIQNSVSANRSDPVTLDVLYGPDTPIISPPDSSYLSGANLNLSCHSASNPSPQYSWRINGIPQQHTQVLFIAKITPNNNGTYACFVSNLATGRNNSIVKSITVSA
Kind of experiment: cell staining of CEACAM5-expressing cell line using FITC-labeled CEA-V2122. It counts as cell-based. The procedure: In order to stain a CEACAM5 expression-positive cancer cell line, FITC labeling was carried out on the cell line, using 100 μg of a purified CEA-V2122 protein. Specifically, labeling was carried out using Fluorescein Labeling Kit—NH2 (DOJINDO LABORATORIES) in accordance with the protocol and amount described in the operating manual included with the kit, and the obtained product was defined to be CEA-V2122-FITC. Specific staining of the CEACAM5 expression-positive cancer cell line is as follows. That is, CEACAM5-positive human stomach cancer-derived MKN-45 cells and CEACAM5-negative human colon cancer-derived DLD1 cells were each seeded on a CELLSTAR, μClear, 96-well plate (Greiner) to a cell density of 2.0×10^4 cells/well, and thereafter, the cells were cultured overnight. Subsequently, a culture solution containing 20 nM CEA-V2122-FITC and 1 μM Hoechist was added to the 96-well plate to a concentration of 100 μL/well, and the obtained mixture was then reacted at 4° C. for 30 minutes. Thereafter, each image was taken using In Cell Analyzer 6000 (GE Healthcare Life Sciences).

The mark [3] stands for this setting: single-cycle kinetics, bivalent analysis mode.

B1: CEA-V2122 (scFv)
chain: QVKLEQSGAEVVKPGASVKLSCKASGFNIKDSYMHWLRQGPGQRLEWIGWIDPENGDTEYAPKFQGKATFTTDTSANTAYLGLSSLRPEDTAVYYCNEGTPTGPYYFDYWGQGTLVTVSSGGGGSGGGGSGGGGSENVLTQSPSSMSVSVGDRVNIACSASSSVPYMHWLQQKPGKSPKLLIYLTSNLASGVPSRFSGSGSGTDYSLTISSVQPEDAATYYCQQRSSYPLTFGGGTKLEIKGGGGSGGGGAEAGITGTWSDQLGDTFIVTAGADGALTGTYENAVGGAESRYVLTGRYDSAPATDGSGTALGWTVAWKNNSKNAHSATTWSGQYVGGADAKINTQWLLTSGTTNANAWKSTLVGHDTFTKVKPSAASHHHHHH
notes: Fusion of an anti-CEACAM5 scFv and mutant streptavidin V2122; also called CEA-Cupid; scFv-V2122
As for B1, the Kd in experiment [1] is 1.08 pM.

B2: CEA-V2122: scFv-type anti-CEACAM5 antibody bound with mutant streptavidin V2122 via an amino acid linker, SEQ ID NO: 14 (protein)
chain: QVKLEQSGAEVVKPGASVKLSCKASGFNIKDSYMHWLRQGPGQRLEWIGWIDPENGDTEYAPKFQGKATFTTDTSANTAYLGLSSLRPEDTAVYYCNEGTPTGPYYFDYWGQGTLVTVSSGGGGSGGGGSGGGGSENVLTQSPSSMSVSVGDRVNIACSASSSVPYMHWLQQKPGKSPKLLIYLTSNLASGVPSRFSGSGSGTDYSLTISSVQPEDAATYYCQQRSSYPLTFGGGTKLEIKGGGGSGGGGAEAGITGTWSDQLGDTFIVTAGADGALTGTYENAVGGAESRYVLTGRYDSAPATDGSGTALGWTVAWKNNSKNAHSATTWSGQYVGGADAKINTQWLLTSGTTNANAWKSTLVGHDTFTKVKPSAASHHHHHH
Regarding B2, the “KD=kd1/ka1” value in experiment [2] (bivalent analysis) worked out at 1.078E−12. Further, the “binding to CEACAM5 (FIG. 5)” value in experiment [2] (from the KD value in the sensorgram) is listed as “strongly binds to CEACAM5”. Besides, in experiment [2] (setting [3]), the ka1 was found to be 3.208E+5 and the kd1 is 3.461E−7.

B3: CEA-V2122-FITC: purified CEA-V2122 protein labeled with Fluorescein Labeling Kit—NH2 (conjugate)
chain: QVKLEQSGAEVVKPGASVKLSCKASGFNIKDSYMHWLRQGPGQRLEWIGWIDPENGDTEYAPKFQGKATFTTDTSANTAYLGLSSLRPEDTAVYYCNEGTPTGPYYFDYWGQGTLVTVSSGGGGSGGGGSGGGGSENVLTQSPSSMSVSVGDRVNIACSASSSVPYMHWLQQKPGKSPKLLIYLTSNLASGVPSRFSGSGSGTDYSLTISSVQPEDAATYYCQQRSSYPLTFGGGTKLEIKGGGGSGGGGAEAGITGTWSDQLGDTFIVTAGADGALTGTYENAVGGAESRYVLTGRYDSAPATDGSGTALGWTVAWKNNSKNAHSATTWSGQYVGGADAKINTQWLLTSGTTNANAWKSTLVGHDTFTKVKPSAASHHHHHH
Regarding B3, the “recognition of CEACAM5 on cells (FIG. 7)” value with CEACAM5 (20 nM, 4° C. 30 minutes, CEACAM5-positive MKN-45 vs CEACAM5-negative DLD1 cells) is “specifically recognizes CEACAM5 on the surface of the cell membrane”. Besides, in the experiment with CEACAM5 (time-series images of MKN45 cells), the “localisation of CEACAM5 after binding (FIG. 8)” value is “the CEACAM5 stays on the surface of the cell membrane”.
